# Measured values: patent US20200361992A1 (PROTAGONIST THERAPEUTICS, published 2020)
# Starred links: 1 amine or outer side, 2 acyl side, 3 side chain; linkers in the order of their positions; H or OH if unused. Positions of bridges follow the written chain, without caps; N, C: chain ends. Non-standard residues stand in square brackets, D forms with d. Groups on a side chain read outwards from the residue. Primed or numbered codes have the meaning given here. *: point of attachment. PEG4′ = bifunctional PEG linker with 4 polyethylene glycol units; PEG12 = NCCOCCOCCOCCOCCOCCOCCOCCOCCOCCOCCOCCOCCC(=O)O; γGlu = O=C(O)[C@H](CCC(=O)[*:2])N[*:1]; Palmitoyl = CCCCCCCCCCCCCCCC(=O)*; Isovaleryl = CC(C)CC(=O)*; hSer = N[C@@H](CCO)C(=O)O; Nle = CCCC[C@H](N)C(=O)O; PEG1′ = not defined here; PEG2′ = not defined here; PEG8′ = not defined here; Ahx = NCCCCCC(=O)O; Sar = CNCC(=O)O
# T1: human ferroportin (SLC40A1) fused with GFP, stably expressed in HEK293 cells (human, UniProt Q9NP59 1-571)
# T1 sequence (looked up): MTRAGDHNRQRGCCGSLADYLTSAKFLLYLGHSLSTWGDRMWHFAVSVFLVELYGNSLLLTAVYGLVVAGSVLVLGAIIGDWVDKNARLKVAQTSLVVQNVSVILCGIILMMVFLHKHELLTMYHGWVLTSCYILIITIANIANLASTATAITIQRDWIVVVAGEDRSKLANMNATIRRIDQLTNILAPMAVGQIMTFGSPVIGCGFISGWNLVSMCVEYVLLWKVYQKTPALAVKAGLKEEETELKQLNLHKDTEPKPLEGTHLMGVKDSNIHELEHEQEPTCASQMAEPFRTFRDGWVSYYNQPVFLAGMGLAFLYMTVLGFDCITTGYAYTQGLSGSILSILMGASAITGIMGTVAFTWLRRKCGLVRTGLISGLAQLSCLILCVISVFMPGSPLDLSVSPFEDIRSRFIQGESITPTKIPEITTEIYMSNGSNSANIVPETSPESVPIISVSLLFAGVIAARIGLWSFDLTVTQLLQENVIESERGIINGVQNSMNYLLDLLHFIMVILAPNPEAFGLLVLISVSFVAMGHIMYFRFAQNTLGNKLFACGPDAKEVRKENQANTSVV
# Target: T1, human ferroportin (SLC40A1) fused with …
# Test: cell-based or functional assay
row,Binder,FPN IC50
1,DTHFPCIKFKC (Isovaleric acid-DTHFPC(SH)I-[Lys]-[Phe]-Lys[PEG11-Palm]-C(SH)-NH2) [Compd ID 69],9 nM
2,Isovaleryl-DTHFPCI[dK]FK([PEG12-Palmitoyl])PRSC-NH2 (disulfide 6-14 (inferred)) [Compd ID 72],12 nM
3,Isovaleryl-DTHFPCI[dK]FK([PEG12-Palmitoyl])RC-NH2 (disulfide 6-12 (inferred)) [Compd ID 79],22 nM
4,DTHXPCIKFKKC (Isovaleric_Acid-D-T-H-bhPhe-(D)Pro-C-I-(D)Lys-F-[Lys_Peg11_Palm]-(D)Lys-C-NH2) [Compd ID 168],54 nM
5,Isovaleryl-DTHFPCI[dK]FK([PEG12-Palmitoyl])RC[dR]-NH2 (disulfide 6-12 (inferred)) [Compd ID 85],27 nM
6,Isovaleryl-DTHFPCI[dK]FK([γGlu-PEG2′-Palmitoyl])C-NH2 (disulfide 6-11 (inferred)) [Compd ID 28],23 nM
7,Isovaleryl-DTHFPCI[dK]FK([PEG12-Palmitoyl])[dK]C-NH2 (disulfide 6-12 (inferred)) [Compd ID 82],13 nM
8,Isovaleryl-DTHFPCI[dK]FK([PEG12-Palmitoyl])KC-NH2 (disulfide 6-12 (inferred)) [Compd ID 80],14 nM
9,Isovaleryl-DTHFPCI[hSer]FK([PEG12-Palmitoyl])C-NH2 (disulfide 6-11 (inferred)) [Compd ID 12],2 nM
10,Isovaleryl-DTHFPCI[dK]FK(Palmitoyl)C-NH2 (disulfide 6-11 (inferred)) [Compd ID 30],31 nM
11,Isovaleryl-DTHFPCIK(Ac)FK([PEG12-Palmitoyl])C-NH2 (disulfide 6-11 (inferred)) [Compd ID 14],3 nM
12,Isovaleryl-DTHFPCI[dK]FK([PEG2′-PEG2′-C18 acid])KC-NH2 (disulfide 6-12 (inferred)) [Compd ID 89],27 nM
13,Isovaleryl-DTHFPCI[dK]FK([Ahx-Palmitoyl])C-NH2 (disulfide 6-11 (inferred)) [Compd ID 25],11 nM
14,Isovaleryl-DTHFPCI[dK]FK([PEG12-Palmitoyl])PRC-NH2 (disulfide 6-13 (inferred)) [Compd ID 71],8 nM
15,Isovaleryl-DTHFPCI[dK]FK([PEG12-Palmitoyl])C-NH2 (cysteine pairing not given here) [Compd ID 68],12 nM
16,Isovaleryl-DTHFPCI[dK]FK([PEG12-Palmitoyl])PC-NH2 (disulfide 6-12 (inferred)) [Compd ID 70],5 nM
17,Isovaleryl-DTHFPCI[dK]FK([PEG4′-Palmitoyl])C-NH2 (disulfide 6-11 (inferred)) [Compd ID 22],17 nM
18,DTHFPCIKFKPRSKGC (Isovaleric acid-DTHFPCIKF-Lys[PEG11-Palm]-PRSKGC-NH2) [Compd ID 3],16 nM
19,Isovaleryl-DTHFPCIKWK([PEG12-Palmitoyl])C-NH2 (disulfide 6-11 (inferred)) [Compd ID 20],4 nM
20,Isovaleryl-DTHFPCI[dK]FK([PEG1′-Palmitoyl])C-NH2 (disulfide 6-11 (inferred)) [Compd ID 24],17 nM
21,Isovaleryl-DTHFPCI[dK]FK([PEG12-Palmitoyl])PRCK-NH2 (disulfide 6-13 (inferred)) [Compd ID 77],15 nM
22,Isovaleryl-DTHFPCI[dK]FK([PEG8′-Palmitoyl])C-NH2 (disulfide 6-11 (inferred)) [Compd ID 21],30 nM

row,Binder,FPN IC50
1,Isovaleryl-DTHFPCI[dK]FK([PEG2′-Palmitoyl])C-NH2 (disulfide 6-11 (inferred)) [Compd ID 23],40 nM
2,Isovaleryl-DTHFPCI[dK]FK([PEG12-Palmitoyl])[dR]C-NH2 (disulfide 6-12 (inferred)) [Compd ID 81],9 nM
3,Isovaleryl-DTHFPCI[dK]FK([PEG12-Palmitoyl])HC[dH]-NH2 (disulfide 6-12 (inferred)) [Compd ID 84],16 nM
4,Isovaleryl-DTHFPCI[Nle]FK([PEG12-Palmitoyl])C-NH2 (disulfide 6-11 (inferred)) [Compd ID 15],2 nM
5,DTHFPCIKFKPRSKC (Isovaleric acid-DTHFPCIKF-Lys[PEG11-Palm]-PRSKC-NH2) [Compd ID 4],32 nM
6,Isovaleryl-DTHFPCI[dK]FK([Ahx-Palmitoyl])KC-NH2 (disulfide 6-12 (inferred)) [Compd ID 86],9 nM
7,DTHFPCIKFKPRSC (Isovaleric acid-DTHFPCIKF-Lys[PEG11-Palm]-PRSC-NH2) [Compd ID 5],30 nM
8,DTHXPCIKFKKC (Isovaleric Acid-D-T-H-[Dpa]-(D)Pro-C-I-(D)Lys-F-[Lys_Peg11_Palm]-(D)Lys-C-NH2) [Compd ID 167],81 nM
9,Isovaleryl-DTHFPCI[dK]FK([PEG2′-γGlu-Palmitoyl])C-NH2 (disulfide 6-11 (inferred)) [Compd ID 26],13 nM
10,Isovaleryl-DTHFPCI[dK]FK([PEG12-Palmitoyl])CK-NH2 (disulfide 6-11 (inferred)) [Compd ID 78],17 nM
11,Isovaleryl-DTHFPCI[dK]FK([PEG12-Palmitoyl])KC[dK]-NH2 (disulfide 6-12 (inferred)) [Compd ID 83],40 nM
12,Isovaleryl-DTHFPCI[dK]FK([γGlu-Palmitoyl])C-NH2 (disulfide 6-11 (inferred)) [Compd ID 27],35 nM
13,Isovaleryl-DTHFPCI[dK]FK([PEG12-Palmitoyl])PRSKCK-NH2 (disulfide 6-15 (inferred)) [Compd ID 75],14 nM
14,Isovaleryl-DTHFPCI[dK]FK([PEG2′-Ahx-Palmitoyl])C-NH2 (disulfide 6-11 (inferred)) [Compd ID 29],30 nM
15,Isovaleryl-DTHFPCI[dK]FK([PEG12-Palmitoyl])PPRSCK-NH2 (disulfide 6-15 (inferred); not fully specified) [Compd ID 76],16 nM
16,Isovaleryl-DTHFPCI[dK]FK([PEG12-Palmitoyl])PRSKC-NH2 (disulfide 6-15 (inferred)) [Compd ID 73],11 nM
17,DTHFPCIKFKPC (Isovaleric acid-DTHFPC(SH)I-[Lys]-[Phe]-Lys[PEG11-Palm]-Pro-C(SH)-NH2) [Compd ID 67],13 nM
18,Isovaleryl-DTHFPCIQFK([PEG12-Palmitoyl])C-NH2 (disulfide 6-11 (inferred)) [Compd ID 13],4 nM
19,Isovaleryl-DTHFPCI[dK]FK([PEG2′-Palmitoyl])KC-NH2 (disulfide 6-12 (inferred)) [Compd ID 87],15 nM
20,Isovaleryl-DTHFPCI[dK]FK([PEG2′-PEG2′-Palmitoyl])KC-NH2 (disulfide 6-12 (inferred)) [Compd ID 88],13 nM
21,Isovaleryl-DTHFPCI[dK]FK([PEG12-Palmitoyl])PRSK[Sar]C-NH2 (disulfide 6-16 (inferred)) [Compd ID 74],9 nM
